Source: patent publication US20190093159

Experiments:
nucleosomes with H4K12ac = nucleosomes with H4K12ac (UniProt P62805)
[1] = system: H3Kac5-containing nucleosomes (H3 K9/14/18/23/27ac)
wt nucleosomes = wt nucleosomes (UniProt P62805)
[2] = target: H4Kac5-containing nucleosomes (H4 K5/8/12/16/20ac) (UniProt P62805)

recombinant full-length human p300
H3 acetylation (α-H3K18ac pulldown) (nucleosomes with H4K12ac): This effect was dependent on the exact position of the mark within the tail and was most pronounced for H4K12ac
pulldown efficiency with α-H4K5ac antibody (% input) (nucleosomes with H4K12ac): 4.4% input
H4 acetylation (α-H4K5ac pulldown) compared to wt [1]: 6-fold increase compared to wt
pulldown with α-H3K18ac antibody (% input), with AcCoA (wt nucleosomes): an increase in pulldown from 0.3% to about 4% input
pulldown with α-H3K18ac antibody (% input), without AcCoA (wt nucleosomes): an increase in pulldown from 0.3% to about 4% input
pulldown with α-H4K5ac antibody (% input), with AcCoA (wt nucleosomes): 0.5 to 0.9% input
pulldown with α-H4K5ac antibody (% input), without AcCoA (wt nucleosomes): 0.5 to 0.9% input
H3 acetylation (α-H3K18ac pulldown) compared to wt [2]: 13-fold compared to wt
